Measured values from the nanobody polyreactivity screen of Harvey et al. (2022).

Assay: yeast display, Sf9 membrane polyspecificity reagent, FACS + sequencing; frameworks hold sequencing errors
Summary of the method: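 In a synthetic yeast display library (Saccharomyces cerevisiae BJ5465), nanobody expression was induced with galactose for 36–48 hours. FACS gates were set low and high (top ~1%) using anti-HA fluorescence for expression and streptavidin fluorescence for binding of the Sf9 membrane reagent. Each polyreactivity label is drawn from the gate of origin.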

Sequence	polyreactivity (PSR sort gate)
QVQLVESGGGLVQAGGSLRLSCAASGRIFYYNAMGSYRQAPGKESELVAAIRRSGSRTYYADSVKGRFTISRDNSKNTVSLEMNSLKPEDTAVYYCAAKYASFAHHDSWGQGTQVTVSS	high polyreactivity
QDQLVESGGGLVQAGGSLRLSCAASGLIFKYNAMGWSRQAPGKERELVADINRSGGSTYYADSVKGRFTISRDNSKNTVSLQMNSLKPEDSAVYDCAAERVSLYWVIFGYWGQGTQVTVSS	low polyreactivity
QVQLVESGGGLVQAGGSLRLSCAASGRIFVIYGRGWYRPAPGKERELVATISWSGSSTSYADSVKGRFTISRDNAKNTVYLQMNSLKPEDTAVYYCAAYTWYSRHRMNYWGQGTQVTVSS	high polyreactivity
QVQLVESGGGLVQAGGSLRLSCAASGSTFYAYAMGWYRQAPGKERELVAAINGSGGSTNYADSVKGRFTISRDNAKHTDYLQMNSQKPEDTAVYYCAADWSRRLYDYWGQGTQVTVSS	low polyreactivity
QVQLVESGGGLVQAGGSLRLSCAASGFTFRIYTMGWYRQAPGKERELVAAIRWSDGTTYYADSVKGRFTISRDNAKNTVYLQMNSLKPEDTAVYYCAAYTYYYYYWGQGTQVTVSS	high polyreactivity
QVQLVESGGGLVQAGASLRLSCAASGSIFKDYAMGWYRQAPWKERDLLAAITSRTSTTYADSVKGRFTISRDNAKNTVYLQMNSLKPEDTAVYYCAVEDLGSEGWGWYKEMDYWGQGTQVTVSS	low polyreactivity
QVQLVESGGGLVQAGGSLRLSCAASGSTFITNAMGWYRQAPGKERELVAAISSSGGSTYYADSVKGRFTISRDNAKNTVYLQMNSLKPEDTAVYYCNAVPYVPRFDYWGQGTQVTVSS	low polyreactivity
QVQLGESGGGLVQAGGSLRLSCAASGSTFDYYAMGWYRQAPGKERELVAGITSDGSTYYADSVKGRFTISRDNAKNTVYLQMNSLKPEDTAVYYCNKDSTGDGYEYWGQGTQVTVSS	low polyreactivity
QVQLVESGGGLVQAGGSLRLSCAASGRTFYIYAMGWYRQAPGKERELVAAITYSSGTTYYADSVKGRFTISRDNAKNTVYLQMNSLKPEDTAVYYCAADVGFNQFDYWGQGTQVTVSS	low polyreactivity
QVQLVDSGGGLVQARGSLRLSCAASGYNFGNAMGWYRQPPGQEREFVAAISSSGSSTYYADSVKGRFTISRDNAKNTVYLQMNSLKPEDTAVYYCAKSRRSAAPKYDYWGQGTQVTVSS	high polyreactivity
QVQLVESGGGLVQAGGSLRLSCAASGFTFGVYAMGWYRQAPGKERELVAAITSGGGRTYADSVKGRFTISRDNAKNTVYLQMNSLKPEDSAVYYCAAQQGISNGTGVSATNPMDYWGQGTQVTVSS	low polyreactivity
QVQLVESGGGLVQAGGSLRLSCAAYGSIFDSNTMGWYRQAPGKERELVAGISTGGSTNYADSVKGRFTISRDNAKNTVYLQMNSQKPEDTAVYYCNADLGSSYDWGQGTQVTVSS	low polyreactivity
QVQLVESGGGLDQAGGSLRLSCAASGLTFRYYAMGWYRQAPGKERELVAGISGRGGSTYYADSVKGRFTISRDNAKNTVYLQMNSLKPEDTAVYYCAADYSYGRFRRFDYWGQGTQVNVSS	high polyreactivity
QVHLVESGGGLVQAGGSLRLSCDASGSIFSVNVMGWYRQQPGKERELVAAITSGGSTHYADSVKGRFTISRDNAKNTVYLQMNSLKPEDTAVYDCAARVWYYDYWGQGTQVTVSS	high polyreactivity
QVQLVESGGGLVQAGGSLRLSCAASGSTFLVNAMGWYRQAPGKERELVAAISRSTGSTYYADSVKGRFTISRDNAKNTVYLQMNSLKPEDTAVYYCAVYRHGYGYNYWGQGSQVTVSS	high polyreactivity
QVQPVESGGGLVQAGGSLRLSCAASGSTLGHNAMGWYRQAPGKERELVAAITSSGGRTYYADSVKGRFTISRDNAKNTVYLQMNSLKPEDTAVYYCAADDTDYPEYDYWGQGTQVTVSS	high polyreactivity

Sequence	polyreactivity (PSR sort gate)
QVQLVESGGGLVQAGGSLRLSCAASGITFIRNAMGWYRQAPGKERELVAAISYRGGSTYYADSVKGRFTISRDNAKNTVYLQMNSLKPEDTAVYYCAAARKLDATTYYKFDYWGQGTQVTVSS	high polyreactivity
QVQLVESGGRLVQAGGSLRLTCAASGSTIYQYVMRWYRQAPGKERELVAVITWSGGRTYYADSVKGRFTISRDNAKNTVYLQMNSLKPEDTAGYYCAADPLSGYDYWGQGTHVTVSS	low polyreactivity
QDQLVESWGGLVQAGGSLRLICAASGFIFRSYAMGWYRQAPGKERELVAAITYSGGRTYYADSVKGRFTISRDNAKNTVYLQMNSLKPEDTAVYYCAAETRVDFYWGQGTQVTVSS	high polyreactivity
QVQLVESGGGLVQAGGSLRLSCAASGITFAYYAMGWYRQAPGKERELVAVITSGGRTNYADSVKGRFTISRDNAKNTVYLQMNSLKPEDTAVYYCAAYRSSKTLRLGYYYWGQGTQVTVSS	high polyreactivity
QVQLVESGGGLVQAGGSLRLSCAASGFTFDSYDMGGYRQAPGKERVLVAAITWSGGSTYYADSVKGRFTISRDYAKNTVYLQMNSLKPEDTAVYYGNADTGTYWVPWYHDGYDYWGQGTQVTVSS	low polyreactivity
QVQLVESGGGLVQAGGSLRLSSAASGRTFSRYAMGWYRQAPGKERELVATISWSGGSTYYADSVKGRFTISRDNAKNTVYLQMNSLNPEDTAVYYCAAKGVYQYRFTKYGYWGQGTQVTVSS	high polyreactivity
QVQLLESGGGLVQAGGSLRLSCAASGGTFYSYAMGWYRQAPGKERELVATITRRSGSTYYADSVKGRFTISRDNAKNTVYLQMNSLKPEDTAVYYCAATKYKLLFIHFRYDYWGQGTQVTVSS	high polyreactivity
QVQLQESGGGLVQAGGSLRPSCAASGNIFVPFKMGWYRMAPGKERELVASINRGSTTNYADSVKGRFTISRDNAKNTVYLQMISLKPEDTAVYYCAAIAYPDIPTYLDYDSDYFYWDQGTQVTVSS	high polyreactivity
QVQLVESGGGLVQAGGSLRLSCAASGNIFADYVMGWYRQAPGKERELVAAIDKSGGRTYYADSVKGRFTISRDNEKNNVYLQMNILKPEDTAVYYCSAYDRYRRMDYWGQGTQVTVSS	high polyreactivity
QVQLVESGGVLVQAGGSLRLSSAAYGFIFAKYAMVWYIQAHGKERELVAGISESCGSTYYADSVKGRFTISRDNAKNTVYLQLNSLKPEDTAVYYCNADDTVYFIKAGDYWGQGTQGTVSS	high polyreactivity
QVQLEESGGGLVQAGGSLRLSCAASGRTFDRNTMGWYRQAPGKERELVASITSSGASTYYADSVKGRFTISRDNAKNTVYLQINSLKPVDTSVYYCAARTYTGNYSNSKYYYWGQGTEVTVSS	high polyreactivity
QVQLVESGGGLVQAGGSLRLSCAASGYTFQYNDMGWYRQAPGKERELVAGISIGGSTNYADSVKGRFTISRDNAKNTVYLQMNSLKPEDTAVYYCAARTLWFPGTTSTSVGYKYGYWGQGTQVTVSS	low polyreactivity
QLQLVESGGGLVQAGGSLRLSCAASGFTFGVYAMGWYRQAPGKERELVAAISTTVGSTYYADSVKGRYTISRDNAKNTVYLQMNSLKPEDTAVYYCAAEYTGYISYYIYEDWGQGTQVTVSS	low polyreactivity
QVQLVESGGGLVQAGGSLRLSCAASGSIFRFYAMGWYRQAPGKERELVAAITSGGSTNYADSVKGRFTISRDNAKNTVYLQMNSLKPEDTAVYYCAAELVYFFIYDYWGQGTQVTVSS	low polyreactivity
QVQLVESGGGLVQAGGSLRLSCAASGNIFSTYAMGWDRQAPGKERELVAAISSRGTSTYYADSVKGRFTISRDNAKNTVYLQMNSLKPEDTAVYYCNAVIALQLDYWGQGTQVTVSS	high polyreactivity
QVQLVESGGGLVQAGGSHRLSCAASGRTFEYNGKGWYRQAPGKERELVAAITRGGSTYYADSVKGRFTISRDNAKNTVYLQMNSLKPEDTAVYYCAAEVGWSRYKWLEYWGQGTQVTVSS	low polyreactivity
